Data: publication PMC4447949, “Structures of the Ets Protein DNA-binding Domains of Transcription Factors Etv1, Etv4, Etv5, and Fev” (The Journal of Biological Chemistry, 2015)

Assays:
Details in all cases: protein: recombinant; tags: N-terminal His6 removed by TEV (leaves SM); blunt
[1] = biological target: T1, Etv1 Y395F (human, UniProt P50549 326-429, Y395F); assay: EMSA; 2 nM probe; 10 mM TCEP; saturates at 60% of probe; EMSA: 50 mM Tris-HCl pH 7.5, 50 mM NaCl, 2 mM MgCl2, 0.01% Tween 20, 5% glycerol, 1 h at room temperature; proteins reduced with 10 mM TCEP unless stated; 10% native PAGE
[2] = biological target: T1, Etv1 Y395F; assay: EMSA; 0.1 nM probe; 10 mM TCEP; EMSA: 50 mM Tris-HCl pH 7.5, 50 mM NaCl, 2 mM MgCl2, 0.01% Tween 20, 5% glycerol, 1 h at room temperature; proteins reduced with 10 mM TCEP unless stated; 10% native PAGE
[3] = biological target: Etv1 R391A (human, UniProt P50549 326-429, R391A); assay: as above
[4] = biological target: Etv1 Y329S-P427S (human, UniProt P50549 326-429, Y329S;P427S); assay: as above
[5] = biological target: Etv1 D387A (human, UniProt P50549 326-429, D387A); assay: as above
[6] = biological target: Etv1 Ets domain WT (reduced monomer) (human, UniProt P50549 326-429); assay: as above
[7] = biological target: T2, Etv1 S334E (human, UniProt P50549 326-429, S334E); assay: as above
[8] = biological target: Etv1 Y397F (human, UniProt P50549 326-429, Y397F); assay: EMSA; 2 nM probe; undetectable or below regression threshold; EMSA: 50 mM Tris-HCl pH 7.5, 50 mM NaCl, 2 mM MgCl2, 0.01% Tween 20, 5% glycerol, 1 h at room temperature; proteins reduced with 10 mM TCEP unless stated; 10% native PAGE
[9] = biological target: Etv4 Ets domain (human, UniProt P43268 338-470); assay: EMSA; 10 mM TCEP; probe 0.1 nM (Table 3) or 0.2 nM (Fig. 9); EMSA: 50 mM Tris-HCl pH 7.5, 50 mM NaCl, 2 mM MgCl2, 0.01% Tween 20, 5% glycerol, 1 h at room temperature; proteins reduced with 10 mM TCEP unless stated; 10% native PAGE
[10] = biological target: Etv5 Ets domain (human, UniProt P41161 365-462); assay: as above
[11] = biological target: T3, Etv1 C416S (human, UniProt P50549 326-429, C416S); assay: EMSA; 0.1 nM probe; EMSA: 50 mM Tris-HCl pH 7.5, 50 mM NaCl, 2 mM MgCl2, 0.01% Tween 20, 5% glycerol, 1 h at room temperature; proteins reduced with 10 mM TCEP unless stated; 10% native PAGE
[12] = biological target: T3, Etv1 C416S; assay: EMSA; 2 nM probe; EMSA: 50 mM Tris-HCl pH 7.5, 50 mM NaCl, 2 mM MgCl2, 0.01% Tween 20, 5% glycerol, 1 h at room temperature; proteins reduced with 10 mM TCEP unless stated; 10% native PAGE
[13] = biological target: Etv1 K404A (human, UniProt P50549 326-429, K404A); assay: as above
[14] = biological target: T2, Etv1 S334E; assay: EMSA; 2 nM probe; 10 mM TCEP; saturates at 35% of probe; EMSA: 50 mM Tris-HCl pH 7.5, 50 mM NaCl, 2 mM MgCl2, 0.01% Tween 20, 5% glycerol, 1 h at room temperature; proteins reduced with 10 mM TCEP unless stated; 10% native PAGE
[15] = biological target: Etv1 K379A (human, UniProt P50549 326-429, K379A); assay: EMSA; 2 nM and 0.1 nM probe; EMSA: 50 mM Tris-HCl pH 7.5, 50 mM NaCl, 2 mM MgCl2, 0.01% Tween 20, 5% glycerol, 1 h at room temperature; proteins reduced with 10 mM TCEP unless stated; 10% native PAGE
Sequence of Etv1 K379A (P50549 326-429 K379A): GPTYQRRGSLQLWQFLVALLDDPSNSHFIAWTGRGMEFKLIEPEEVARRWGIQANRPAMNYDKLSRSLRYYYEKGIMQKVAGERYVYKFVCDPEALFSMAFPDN

T1 sequence (P50549 326-429 Y395F): as the sequence (P50549 326-429 K379A) above, with A54K, Y70F counted along it
T3 sequence (P50549 326-429 C416S): as the sequence (P50549 326-429 K379A) above, with A54K, C91S counted along it
T2 sequence (P50549 326-429 S334E): as the sequence (P50549 326-429 K379A) above, with S9E, A54K counted along it
Sequence of Etv1 Y329S-P427S (P50549 326-429 Y329S/P427S): as the sequence (P50549 326-429 K379A) above, with Y4S, A54K, P102S counted along it
Sequence of Etv4 Ets domain (P43268 338-470): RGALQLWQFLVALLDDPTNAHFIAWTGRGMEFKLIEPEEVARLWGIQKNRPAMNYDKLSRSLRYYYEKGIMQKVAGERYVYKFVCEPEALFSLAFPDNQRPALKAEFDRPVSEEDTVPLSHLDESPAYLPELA
Sequence of Etv5 Ets domain (P41161 365-462): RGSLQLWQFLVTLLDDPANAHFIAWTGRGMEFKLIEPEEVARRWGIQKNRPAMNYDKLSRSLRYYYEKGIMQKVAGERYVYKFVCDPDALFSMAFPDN
Sequence of Etv1 Ets domain WT (reduced monomer) (P50549 326-429): as the sequence (P50549 326-429 K379A) above, with A54K counted along it
Sequence of Etv1 Y397F (P50549 326-429 Y397F): as the sequence (P50549 326-429 K379A) above, with A54K, Y72F counted along it
Sequence of Etv1 K404A (P50549 326-429 K404A): as the sequence (P50549 326-429 K379A) above, with A54K, K79A counted along it
Sequence of Etv1 D387A (P50549 326-429 D387A): as the sequence (P50549 326-429 K379A) above, with A54K, D62A counted along it
Sequence of Etv1 R391A (P50549 326-429 R391A): as the sequence (P50549 326-429 K379A) above, with A54K, R66A counted along it

B1: Etv1ALF/Etv1ALR EMSA probe (dsDNA)
DNA 1: ATCTCACCGGAAGTGTAGCA
DNA 2: TGCTACACTTCCGGTGAGAT
- Kd [1]: 230 ± 50 pM
- Kd [2]: 1350 ± 1050 pM
- Kd [3]: 8600 ± 1680 pM
- Kd [4]: 310 ± 60 pM
- Kd [5]: 190 ± 30 pM
- Kd [6]: 590 ± 150 pM
- Kd [7]: 940 ± 510 pM
- binding result [8]: no binding
- Kd [9]: 340 ± 66 pM
- Kd [10]: 1160 ± 110 pM
- Kd [11]: 260 ± 60 pM
- Kd [12]: 460 ± 60 pM
- binding result [13]: no binding
- Kd [14]: 890 ± 320 pM
- binding result [15]: no binding
